Reference: patent US20070072177A1 (CRUCELL HOLLAND B V, published 2007)
Changes are numbered by the printed parent chain.

T1: glycoprotein of rabies virus strain CVS-11 (rabies virus strain CVS-11, UniProt O92284 20-524)
T1 sequence: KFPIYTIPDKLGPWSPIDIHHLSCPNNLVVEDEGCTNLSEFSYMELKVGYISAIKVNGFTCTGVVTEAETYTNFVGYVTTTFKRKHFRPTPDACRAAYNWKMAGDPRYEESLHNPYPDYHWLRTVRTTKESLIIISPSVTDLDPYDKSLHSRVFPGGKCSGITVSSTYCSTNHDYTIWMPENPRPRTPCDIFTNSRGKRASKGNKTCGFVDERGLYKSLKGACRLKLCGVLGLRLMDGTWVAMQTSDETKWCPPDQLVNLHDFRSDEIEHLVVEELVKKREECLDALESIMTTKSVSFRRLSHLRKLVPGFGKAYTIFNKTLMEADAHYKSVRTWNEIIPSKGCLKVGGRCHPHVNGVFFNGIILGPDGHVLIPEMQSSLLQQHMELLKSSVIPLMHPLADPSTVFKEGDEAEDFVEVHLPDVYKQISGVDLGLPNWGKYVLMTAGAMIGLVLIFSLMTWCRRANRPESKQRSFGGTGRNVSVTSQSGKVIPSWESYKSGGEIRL

B1: SC04-104 (scFv)
scFv: AMAQVQLQESGGGVVQPGRSLRLSCAASGFTFSSYGMHWVRQAPGKGLEWVATISYDGNVKDYADSVKGRFTISRDNSKNTLYLQMNSLRTEDTAVYYCAKIVVVTALDAFDIWGQGTMVTVSSGTGGSGGTGSGTGGSTDIQLTQSPSTLSASVGDRVTITCRASQILGHWLPLSWYQQKPGKAPKLLISKASSLESGVPPRFSGSGSGSDFTLTISSLQPDDFATYYCLQYHEYPLTFGGGTKLEIKRAAA
B2: SC04-108 (scFv)
scFv: AMAEVQLVQSGGGLVQPGGSLRLSCAASGFTFSSYGMHWVRQAPGKGLEWVAVILYDGSDKFYADSVKGRFTISRDNSKDTLYLQMNSLRAEDTAVYYCAKFMIVADDAFDIWGQGTMVTVSSGTGGSGGTGSGTGGSTDIQLTQSPSSLSASVGDRVTITCRASQGISSHLVWYQQKPGKAPKSLIYAASSLQSGVPSRFSGSESATDFTLTISSLQPEDFATYYCQQYYSYPITFGQGTRLEIKRAAA
B3: SC04-073 (scFv)
scFv: AMAQVQLVQSGGGVAQPGRSLRLSCAASGFTFSSYGMHWVRQAPGKGLEWVADISYDGSNKYYADSVKGRFTISRDNSKNTLYLQMNSLRAEDTAVYYCAKDGLDLTGTIQPFGYWGQGTLVTVSSGTGGSGGTGSGTGGSTDIQLTQSPSFLSASVGDRVTITCRASHSISSWLAWYQQKPGKAPKLLIYKASSLESGVPSRFSGSGSGTDFTLTISSLQPEDFATYYCLQDYNYPRTFGQGTKLEIKRAAA
B4: SC04-021 (scFv)
scFv: AMAEVQLVESGGGVVQPGRSLRLSCAASGFTFSSYGMHWVRQAPGKGLEWVAVISYDGSSKYYADSVKGRFTISRDNSKNTLYLQMNSLRAEDTAVYYCAKGSVLGDAFDIWGQGTMVTVSSGTGGSGGTGSGTGGSTDIQMTQSPFSLSASVGDRVTITCRASQGIGSSLAWYQQKPGKAPKLLIYAASSLQSGVPSRFSGSGSGTDFTLTISSLQPEDFATYFCLQHHDYPLTFGGGTKLEIKRAAA
B5: SC04-010 (scFv)
scFv: AMAQVQLVQSGGDLVQPGRSLRLSCAASGFTFSSYGMHWVRQAPGKGLEWVADISYDGSNKYYADSVKGRFTISRDNSKNTLYLQMNSLRAEDTAVYYCAKDGLDLTGTIQPFGYWGQGTLVTVSSGTGGSGGTGSGTGGSTDIQMTQSPSSLSASVGDRVTITCRASQGIRNDLGWYQQKPGKAPKLLIYAASSLQSGVPSRFSGSGSGTDFTLTISSLQPEDFATYYCLQDYNYPRTFGQGTKVEIKRAAA
B6: SC04-008 (scFv)
scFv: AMAQVTLKESGPTLVKPTQTLTLTCTFSGFSLSTSGVGVGWIRQPPGKALEWLARIDWDDDKYYSTSLKTRLTISKDTSKNQVVLTMTNMDPVDTATYYCARMGFTGTYFDYWGQGTLVTVSSGTGGSGGTGSGTGGSTQAVLTQPSSVSVAPGETASVTCGGDNIGSKSVHWYQKKPGQAPVLVVFDDSDRPSGIPERFSGSTSGNTAALTISRVEAGDEADYYCQVWDSSNDHLYVFGPGTQLTVLSAAA
B7: SC04-018 (scFv)
scFv: AMAEVQLVESGPGLVRPSGTLSLTCAVSGGSISSSNWWSWVRQPPGKGLEWIGEIYHSGSTNYNPSLKSRVTISVDKSKNQFSLKLSSVTAADTAVYYCARVSVTTGAFNIWGQGTMVTVSSGTGGSGGTGSGTGGSTQPVLTQPLSASGTPGQRVTISCSGDTSNIGSNTVHWYQRLPGTAPKLLIHNNNQRPSGVPDRFSGAKSGTSASLAISGLQSEDEADYFCAAWDDNLNGYVFGTGTKVTVLGAAA
B8: SC04-060 (scFv)
scFv: AMAQVQLVESGPGLVKASETLSLTCTVSDGSISSFYWSWIRQPPGKGLEWVGEIQDTGRTNYNPSLKSRVTISLDTSKNQFSLTLSSVTAADTAVYYCAREKEKYSDRSGYSYYYYYMDVWGKGTTVTVSSGTGGSGGTGSGTGGSTDIQMTQSPSSLSASVGDRVTITCRASQGISTYLNWYQQKPGKAPNLLIYGASNLQSGVPSRFSGSESGTDFTLTISSLQPEDFATYYCQQSFTTPRTFGQGTKLEIKRAAA
B9: SC04-164 (scFv)
scFv: AMAEVQLVESGGGVVQPGRSLRLSCAASGFTFSSYGMHWVRQAPGKGLEWVAVISYDGSSKYYADSVKGRFTISRDNSKNTLYLQMNSLRAEDTAVYYCAKGSVLGDAFDIWGQGTMVTVSSGTGGSGGTGSGTGGSTDIQLTQSPSSVSASVGDRVTITCRASQGISSWLAWYQQKPGKAPKLLIYAASSLQSGVPSRFSGSGSGTDFTLTISSLQPEDFATYYCQQANSFPLTFGGGTKVDIKRAAA
B10: SC04-038 (scFv)
scFv: B9 scFv with E4Q, E9Q, S169G, G179E, S194R, L234P, G238Q, K241R, V242L, D243E
B11: SC04-031 (scFv)
scFv: B9 scFv with S60N, L142M, S148F, D243E
B12: SC04-098 (scFv)
scFv: AMAEVQLVQSGGGAVQPGRSLRLSCAASGFTFSSYGMHWVRQAPGKGLEWVAVILYDGSDKFYADSVKGRFTISRDNSKNTLYLQMNSLRAEDTAVYYCAKVAVAGTHFDYWGQGTLVTVSSGTGGSGGTGSGTGGSTDIQMTQSPSSLSASVGDRVTITCRASQGIRNDLGWYQQKPGKAPKLLIYAASSLQSGVPSRFSGSGSGTDFTLTISSLQPEDFATYYCQQLNSYPPTFGGGTKVEIKRAAA
B13: SC04-103 (scFv)
scFv: AMAQVQLQESGGGVVQPGRSLRLSCAASGFTFSSYGMHWVRQAPGKGLEWVAVILYDGSDKYYADSVKGRFTISRDNSKNTLYLQMNSLRAEDTAVYYCAKVAVAGESFDSWGRGTLVTVSSGTGGSGGTGSGTGGSTDIQLTQSPSSVSASVGDRVTITCRASQGISSWLAWYQQKPGKAPRSLIYDASSLQSGVPSRFSGSGSGTDFTLTISSLQPEDFATYYCQQADSFPITFGQGTRLEIKRAAA
B14: SC04-097 (scFv)
scFv: AMAEVQLVQSGGHLVQPGGSLRLSCAASGFTFSSYAMSWVRQAPGKGLEWVSLIIGSGRSTYYADSVKGRFTISRDNSKNTLYLQMNSLRAEDTAVYYCAKTASNLGRGGMDVWGQGTTVTVSSGTGGSGGTGSGTGGSTDIQLTQSPSSLSASVGDRVTITCRASQGISSHLAWYQQKPGKAPKLLIYAASSLQSGVPSRFSGSGSGTEFTLTISSLQPEDFATYYCQQFNSYPITFGQGTRLEIKRAAA
B15: SC04-001 (scFv)
scFv: AMAEVQLVESGGGVVRPGGSLRLSCAASGFTFDDYGMSWVRQAPGKGLEWVSGINWNGGSTGYADSVKGRFTISRDNAKNSLYLQMNSLRAEDTAVYYCAKGLYGELFDYWGQGTLVTVSRGGGGSGGGGSGGGGSSELTQDPAVSVALGQTVRITCQGDSLRSYYASWYQQKPGQAPVLVIYGKNNRPSGIPDRFSGSSSGNTASLTITGAQAEDEADYYCNSRDSSGNHVVFGGGTKLTVLGAAA
B16: SC04-026 (scFv)
scFv: AMAEVQLVESGAEVKKPGESLKISCKGSGYNFPYSWIAWVRQMPGKGLEWMGIIFPGDSDTRYSPPFQGQVTISADNSKSTAYLQWSSLKASDTAMYYCARTSNWNYLDRFDPWGQGTLVTVSSGTGGSGGTGSGTGGSTDVVMTQSPLSLPVTPGEPASISCRSSQSLLHSNGHDYLDWYVQKPGQSPQPLIYLGSDRASGVPDRFSGSGSGTHFTLNISRVEAEDVGVYYCMQSLQTPWTFGQGTKLEIKRAAA
B17: SC04-040 (scFv)
scFv: AMAQVQLVQSGGGVVQPGRSLRLSCAASGFTFGSYGMHWVRQAPGKGLEWVATIFYDGSYKDYADSVKGRFTISRDNSKNTLYLQMNSLRAEDTAVYYCAKGSKVGDFDYWGQGTLVTVSSGTGGSGGTGSGTGGSTQPVLTQPPSVSVAPGQTARISCGGDNIGTNTVQWYQQKPGQAPVLVVYDDSDRPSGIPERFSGSNSGDTATLTISRVEAGDEADYYCQVWDDSSDLVVFGGGTKVTVLGAAA
B18: scFv SO57 (scFv)
scFv: AMAQVQLVQSGAEVKKPGSSVKVSCKASGGTFNRYTVNWVRQAPGQGLEWMGGIIPIFGTANYAQRFQGRLTITADESTSTAYMELSSLRSDDTAVYFCARENLDNSGTYYYFSGWFDPWGQGTLVTVSSGTGGSGGTGSGTGGSTQSALTQPRSVSGSPGQSVTISCTGTSSDIGGYNFVSWYQQHPGKAPKLMIYDATKRPSGVPDRFSGSKSGNTASLTISGLQAEDEADYYCCSYAGDYTPGVVFGGGTKLTVLGAAA

Each binder was assayed against T1, glycoprotein of rabies virus strain … (assay: cell-based or functional assay).

B1 and B2 are the same in “Potency (IU/ml)” value: 1 IU/ml for the first, 1 IU/ml for the second.

Going from B3 to B4, the “Potency (IU/ml)” value falls from 3 IU/ml to 1.3 IU/ml.

First: B5
Second: B6
The “Potency (IU/ml)” value of the first is lower: 4 IU/ml for the first, greater than 54 IU/ml for the second.

Compared with B7, B8 is higher in “Potency (IU/ml)” value: 0.1 IU/ml for the first, 0.2 IU/ml for the second.

Going from B9 to B10, the “Potency (IU/ml)” value rises from 0.3 IU/ml to 2 IU/ml.

Compared with B11, B12 is higher in “Potency (IU/ml)” value: 0.7 IU/ml for the first, 9 IU/ml for the second.

First: B13
Second: B14
The “Potency (IU/ml)” value of the first is higher: 0.3 IU/ml for the first, 0.2 IU/ml for the second.

Compared with B15, B16 is lower in “Potency (IU/ml)” value: 1.3 IU/ml for the first, 0.3 IU/ml for the second.

B17 was tested, and the “Potency (IU/ml)” value was 0.3 IU/ml.

Each binder was assayed against purified rabies virus glycoprotein (rabies virus ERA strain) (rabies virus strain ERA, UniProt P03524 20-524) (assay: phage ELISA on coated purified G protein (ERA), anti-M13-HRP).

Compared with B1, B2 is lower in “OD 492 nm” value: 0.566 OD 492 nm for the first, 0.363 OD 492 nm for the second.

Compared with B3, B4 is lower in “OD 492 nm” value: 0.657 OD 492 nm for the first, 0.278 OD 492 nm for the second.

Going from B5 to B6, the “OD 492 nm” value falls from 0.915 OD 492 nm to 0.582 OD 492 nm.

Compared with B7, B18 is higher in “OD 492 nm” value: 0.247 OD 492 nm for the first, 0.65 OD 492 nm for the second.

Going from B8 to B9, the “OD 492 nm” value falls from 0.923 OD 492 nm to 0.547 OD 492 nm.

First: B10
Second: B11
The “OD 492 nm” value of the first is lower: 0.653 OD 492 nm for the first, 0.721 OD 492 nm for the second.

Going from B12 to B13, the “OD 492 nm” value falls from 0.798 OD 492 nm to 0.606 OD 492 nm.

Compared with B14, B15 is lower in “OD 492 nm” value: 0.835 OD 492 nm for the first, 0.828 OD 492 nm for the second.

First: B16
Second: B17
The “OD 492 nm” value of the first is lower: 0.212 OD 492 nm for the first, 0.74 OD 492 nm for the second.
